Results taken from paper PMC3105431.

What was measured:
U2AF65 = U2AF65 (human, UniProt P26368 1-475); experiment: EMSA
U2AF65;U2AF35 = U2AF65;U2AF35 (human;human, UniProt P26368;Q01081 1-475;1-240, |); experiment: EMSA
Chain of U2AF65;U2AF35 (P26368 whole entry, chain 1 of 2): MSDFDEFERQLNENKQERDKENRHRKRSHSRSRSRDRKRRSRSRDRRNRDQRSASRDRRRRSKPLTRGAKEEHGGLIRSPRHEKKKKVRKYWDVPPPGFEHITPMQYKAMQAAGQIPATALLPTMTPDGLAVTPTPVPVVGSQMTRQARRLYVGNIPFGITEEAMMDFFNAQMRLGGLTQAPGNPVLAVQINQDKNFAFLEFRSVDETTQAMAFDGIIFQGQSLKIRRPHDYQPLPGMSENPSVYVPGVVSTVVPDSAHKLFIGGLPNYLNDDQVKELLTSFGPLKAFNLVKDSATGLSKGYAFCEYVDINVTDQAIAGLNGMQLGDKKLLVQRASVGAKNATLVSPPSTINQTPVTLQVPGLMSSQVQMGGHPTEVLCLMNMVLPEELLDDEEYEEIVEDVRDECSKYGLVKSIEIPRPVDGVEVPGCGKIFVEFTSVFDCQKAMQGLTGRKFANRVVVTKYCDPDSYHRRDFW
Chain of U2AF65;U2AF35 (Q01081 whole entry, chain 2 of 2): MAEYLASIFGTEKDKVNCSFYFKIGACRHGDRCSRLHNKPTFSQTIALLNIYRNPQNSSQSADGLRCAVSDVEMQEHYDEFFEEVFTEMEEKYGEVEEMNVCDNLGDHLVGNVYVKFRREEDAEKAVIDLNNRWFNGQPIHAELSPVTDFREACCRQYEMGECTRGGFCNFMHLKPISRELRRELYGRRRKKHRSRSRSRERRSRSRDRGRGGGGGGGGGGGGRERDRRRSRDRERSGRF

Chain of U2AF65 (P26368 whole entry, one chain of several): as the sequence (P26368 whole entry, chain 1 of 2) above

GGGAGACAGGCUUACGCAUUCGUCUAUCUUUCGCAUAGUUUGGUCCA (ssRNA) [FECH mutant (PT, E+1 G>U)]
binding result (U2AF65): no binding | binding result (U2AF65;U2AF35): no binding
